Biological target: Cer-PLN-AFA and YFP-PLN-AFA: canine phospholamban AFA mutant fused at its N-terminus with mCerulean or enhanced YFP (canine) (UniProt P61012)
Experiment: FRET or BRET; in-cell binding assay, acceptor sensitization FRET in living AAV-293 cells co-transfected with Cer-PLN-AFA and YFP-PLN-AFA (1:5); FRET against relative protein concentration cell by cell, hyperbolic fit; apparent KD1 of the PLN-PLN oligomer; with or without 1 uM 50-mer ssDNA

Sequence of Cer-PLN-AFA and YFP-PLN-AFA: canine phospholamban AFA mutant fused at its N-terminus with mCerulean or enhanced YFP (P61012 whole entry, stated change not applied, the tested form may be a part): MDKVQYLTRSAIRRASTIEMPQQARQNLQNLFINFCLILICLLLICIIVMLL

**Q.** “Cer-PLN-AFA and YFP-PLN-AFA: canine phospholamban AFA mutant fused at its N-terminus with mCerulean or enhanced YFP (from UniProt P61012 1-52) (natural protein)” was tested. Which increase in PLN oligomerization with 50-mer ssDNA against no ssDNA did it give?
**A.** 20%

From paper PMC4543939
